Test results: patent US20210380703A1

target: Human Fc (human); test: ELISA, negative control

optical density	Binder
0.361 OD	369_F10 (antibody, V domains shown) VH: EVQLLESGGGLVQPGGSLRLSCAASGFTFDSYGMNWVRQAPGKGLEWVSNINYNSGYKSYADSVKGRFTISRDNSKNTLYLQMNSLRAEDTAVYYCARSANWHDTALDYWGQGTLVTVSS VL: DIQMTQSPSSLSASVGDRVTITCRASQSIVTYLNWYQQKPGKAPKLLIYAVTSRASGVPSRFSGSGSGTDFTLTISSLQPEDFATYYCQQSYDLPLTFGGGTKVEIK
0.457 OD	369_H05 (antibody, V domains shown) VH: EVQLLESGGGLVQPGGSLRLSCAASGFTFSSYGMNWVRQAPGKGLEWVANINYNGGYTGYADSVKGRFTISRDNSKNTLYLQMNSLRAEDTAVYYCARSANWHDTALDYWGQGTLVTVSS VL: DIQMTQSPSSLSASVGDRVTITCRASQSIVSYVNWYQQKPGKAPKLLIYAATSRASGVPSRFSGSGSGTDFTLTISSLQPEDFATYYCQQSYSNPLTFGGGTKVEIK
0.637 OD	370_A01 (antibody, V domains shown) VH: EVQLLESGGGLVQPGGSLRLSCAASGFTFSSYSMNWVRQAPGKGLEWVSGINYNSGYKSYADSVKGRFTISRDNSKNTLYLQMNSLRAEDTAVYYCARSANWHDTALDYWGQGTLVTVSS VL: DIQMTQSPSSLSASVGDRVTITCRASQSISTYLNWYQQKPGKAPKLVIYAATSRASGVPSRFSGSGSGTDFTLTISSLQPEDFATYYCQQSYNLPLTFGGGTKVEIK
0.385 OD	369_G04 (antibody, V domains shown) VH: EVQLLESGGGLVQPGGSLRLSCAASGFTFDSYSMNWVRQAPGKGLEWVSGINYNGGYTSYADSVKGRFTISRDNSKNTLYLQMNSLRAEDTAVYYCARSANWHDTALDYWGQGTLVTVSS VL: DIQMTQSPSSLSASVGDRVTITCRASQSILTYVNWYQQKPGKAPKLLIYATTSRHSGVPSRFSGSGSGTDFTLTISSLQPEDFATYYCQQSYETPLTFGGGTKVEIK
0.353 OD	369_G12 (antibody, V domains shown) VH: EVQLLESGGGLVQPGGSLRLSCAASGFTFSSYSMNWVRQAPGKGLEWVANINYNGGYTGYADSVKGRFTISRDNSKNTLYLQMNSLRAEDTAVYYCARSANWHDTALDYWGQGTLVTVSS VL: DIQMTQSPSSLSASVGDRVTITCRASQSILTYVNWYQQKPGKAPKLVIYAATSRHSGVPSRFSGSGSGTDFTLTISSLQPEDFATYYCQQSDNTPLTFGGGTKVEIK
0.365 OD	369_H09 (antibody, V domains shown) VH: EVQLLESGGGLVQPGGSLRLSCAASGFTFDDYSMNWVRQAPGKGLEWVSGINYNGGYTSYADSVKGRFTISRDNSKNTLYLQMNSLRAEDTAVYYCARSANWHDTALDYWGQGTLVTVSS VL: DIQMTQSPSSLSASVGDRVTITCRASQSILSYVNWYQQKPGKAPKLLIYAVTSLASGVPSRFSGSGSGTDFTLTISSLQPEDFATYYCQQSYESPLTFGGGTKVEIK
0.381 OD	370_C08 (antibody, V domains shown) VH: EVQLLESGGGLVQPGGSLRLSCAASGFTFSSYGMNWVRQAPGKGLEWVAGINYNGGYKGYADSVKGRFTISRDNSKNTLYLQMNSLRAEDTAVYYCARSANWHDTALDYWGQGTLVTVSS VL: DIQMTQSPSSLSASVGDRVTITCRASQSISNYLNWYQQKPGKAPKLLIYAVTSRASGVPSRFSGSGSGTDFTLTISSLQPEDFATYYCQQSYDSPLTFGGGTKVEIK
0.347 OD	369_H06 (antibody, V domains shown) VH: EVQLLESGGGLVQPGGSLRLSCAASGFTFSSYGMNWVRQAPGKGLEWVANINYNGGYKSYADSVKGRFTISRDNSKNTLYLQMNSLRAEDTAVYYCARSANWHDTALDYWGQGTLVTVSS VL: DIQMTQSPSSLSASVGDRVTITCRASQSIVSYVNWYQQKPGKAPKLLIYAATSRASGVPSRFSGSGSGTDFTLTISSLQPEDFATYYCQQSYDTPLTFGGGTKVEIK
0.346 OD	370_C05 (antibody, V domains shown) VH: EVQLLESGGGLVQPGGSLRLSCAASGFTFSSYSMNWVRQAPGKGLEWVAGINYNSGYTGYADSVKGRFTISRDNSKNTLYLQMNSLRAEDTAVYYCARSANWHDTALDYWGQGTLVTVSS VL: DIQMTQSPSSLSASVGDRVTITCRASQSILSYVNWYQQKPGKAPKLVIYAATSRASGVPSRFSGSGSGTDFTLTISSLQPEDFATYYCQQSYNSPLTFGGGTKVEIK
0.674 OD	370_A12 (antibody, V domains shown) VH: EVQLLESGGGLVQPGGSLRLSCAASGFTFSSYGMNWVRQAPGKGLEWVAGINYNGGYTSYADSVKGRFTISRDNSKNTLYLQMNSLRAEDTAVYYCARSANWHDTALDYWGQGTLVTVSS VL: DIQMTQSPSSLSASVGDRVTITCRASQSILTYLNWYQQKPGKAPKLLIYAATSLASGVPSRFSGSGSGTDFTLTISSLQPEDFATYYCQQSYDSPLTFGGGTKVEIK
0.403 OD	370_C01 (antibody, V domains shown) VH: EVQLLESGGGLVQPGGSLRLSCAASGFTFDSYSMNWVRQAPGKGLEWVSGINYNSGYTGYADSVKGRFTISRDNSKNTLYLQMNSLRAEDTAVYYCARSANWHDTALDYWGQGTLVTVSS VL: DIQMTQSPSSLSASVGDRVTITCRASQSILTYLNWYQQKPGKAPKLVIYAATSLASGVPSRFSGSGSGTDFTLTISSLQPEDFATYYCQQSYDTPLTFGGGTKVEIK
0.331 OD	369_G11 (antibody, V domains shown) VH: EVQLLESGGGLVQPGGSLRLSCAASGFTFSSYSMNWVRQAPGKGLEWVANINYNSGYKGYADSVKGRFTISRDNSKNTLYLQMNSLRAEDTAVYYCARSANWHDTALDYWGQGTLVTVSS VL: DIQMTQSPSSLSASVGDRVTITCRASQSILTYLNWYQQKPGKAPKLLIYAATSLASGVPSRFSGSGSGTDFTLTISSLQPEDFATYYCQQSYESPLTFGGGTKVEIK
0.37 OD	369_F11 (antibody, V domains shown) VH: EVQLLESGGGLVQPGGSLRLSCAASGFTFDSYGMNWVRQAPGKGLEWVSNINYNSGYKSYADSVKGRFTISRDNSKNTLYLQMNSLRAEDTAVYYCARSANWHDTALDYWGQGTLVTVSS VL: DIQMTQSPSSLSASVGDRVTITCRASQSIISYLNWYQQKPGKAPKLLIYAATSRASGVPSRFSGSGSGTDFTLTISSLQPEDFATYYCQQSYDLPLTFGGGTKVEIK
0.377 OD	370_A04 (antibody, V domains shown) VH: EVQLLESGGGLVQPGGSLRLSCAASGFTFDSYSMNWVRQAPGKGLEWVSGINYNGGYTSYADSVKGRFTISRDNSKNTLYLQMNSLRAEDTAVYYCARSANWHDTALDYWGQGTLVTVSS VL: DIQMTQSPSSLSASVGDRVTITCRASQSIITYLNWYQQKPGKAPKLLIYAATSRASGVPSRFSGSGSGTDFTLTISSLQPEDFATYYCQQSYDNPLTFGGGTKVEIK
0.474 OD	369_G06 (antibody, V domains shown) VH: EVQLLESGGGLVQPGGSLRLSCAASGFTFDSYGMNWVRQAPGKGLEWVAGINYNGGYTSYADSVKGRFTISRDNSKNTLYLQMNSLRAEDTAVYYCARSANWHDTALDYWGQGTLVTVSS VL: DIQMTQSPSSLSASVGDRVTITCRASQSILSYVNWYQQKPGKAPKLVIYAATSRASGVPSRFSGSGSGTDFTLTISSLQPEDFATYYCQQSYENPLTFGGGTKVEIK
0.424 OD	370_A03 (antibody, V domains shown) VH: EVQLLESGGGLVQPGGSLRLSCAASGFTFSSYSMNWVRQAPGKGLEWVSNINYNGGYTSYADSVKGRFTISRDNSKNTLYLQMNSLRAEDTAVYYCARSANWHDTALDYWGQGTLVTVSS VL: DIQMTQSPSSLSASVGDRVTITCRASQSILSYLNWYQQKPGKAPKLLIYAATSRASGVPSRFSGSGSGTDFTLTISSLQPEDFATYYCQQSYDSPLTFGGGTKVEIK
